Reference: US20120090043A1, “TARGETS FOR RETROVIRUS ASSOCIATED DISEASES” (priority 2009, published 2012)

B1: C20orf141: human host interactor protein, Gene ID 128653, expressed from transfected ORF vector (protein)
chain: MTRLCLPRPEAREDPIPVPPRGLGAGEGSGSPVRPPVSTWGPSWAQLLDSVLWLGALGLTIQAVFSTTGPALLLLLVSFLTFDLLHRPAGHTLPQRKLLTRGQSQGAGEGPGQQEALLLQMGTVSGQLSLQDALLLLLMGLGPLLRACGMPLTLLGLAFCLHPWA
B2: DLX2: human host interactor protein, Gene ID 1746, expressed from transfected ORF vector (protein)
chain: MTGVFDSLVADMHSTQIAASSTYHQHQQPPSGGGAGPGGNSSSSSSLHKPQESPTLPVSTATDSSYYTNQQHPAGGGGGGGSPYAHMGSYQYQASGLNNVPYSAKSSYDLGYTAAYTSYAPYGTSSSPANNEPEKEDLEPEIRIVNGKPKKVRKPRTIYSSFQLAALQRRFQKTQYLALPERAELAASLGLTQTQVKIWFQNRRSKFKKMWKSGEIPSEQHPGASASPPCASPPVSAPASWDFGVPQRMAGGGGPGSGGSGAGSSGSSPSSAASAFLGNYPWYHQTSGSASHLQATAPLLHPTQTPQPHHHHHHHGGGGAPVSAGTIF
B3: FANCG: human host interactor protein, Gene ID 2189, expressed from transfected ORF vector (protein)
chain: MSRQTTSVGSSCLDLWREKNDRLVRQAKVAQNSGLTLRRQQLAQDALEGLRGLLHSLQGLPAAVPVLPLELTVTCNFIILRASLAQGFTEDQAQDIQRSLERVLETQEQQGPRLEQGLRELWDSVLRASCLLPELLSALHRLVGLQAALWLSADRLGDLALLLETLNGSQSGASKDLLLLLKTWSPPAEELDAPLTLQDAQGLKDVLLTAFAYRQGLQELITGNPDKALSSLHEAASGLCPRPVLVQVYTALGSCHRKMGNPQRALLYLVAALKEGSAWGPPLLEASRLYQQLGDTTAELESLELLVEALNVPCSSKAPQFLIEVELLLPPPDLASPLHCGTQSQTKHILASRCLQTGRAGDAAEHYLDLLALLLDSSEPRFSPPPSPPGPCMPEVFLEAAVALIQAGRAQDALTLCEELLSRTSSLLPKMSRLWEDARKGTKELPYCPLWVSATHLLQGQAWVQLGAQKVAISEFSRCLELLFRATPEEKEQGAAFNCEQGCKSDAALQQLRAAALISRGLEWVASGQDTKALQDFLLSVQMCPGNRDTYFHLLQTLKRLDRRDEATALWWRLEAQTKGSHEDALWSLPLYLESYLSWIRPSDRDAFLEEFRTSLPKSCDL
B4: GCC1: human host interactor protein, Gene ID 79571, expressed from transfected ORF vector (protein)
chain: MEKFGMNFGGGPSKKDLLETIETQKKQLLQYQARLKDVVRAYKSLLKEKEALEASIKVLSVSHEADVGLAGVQLPGLTFPDSVDDRCSTHSEDSTGTATSLDTAASLTSTKGEFGVEDDRPARGPPPPKSEEASWSESGVSSSSGDGPFAGGEVDKRLHQLKTQLATLTSSLATVTQEKSRMEASYLADKKKMKQDLEDASNKAEEERARLEGELKGLQEQIAETKARLITQQHDRAQEQSDHALMLRELQKLLQEERTQRQDLELRLEETREALAGRAYAAEQMEGFELQTKQLTREVEELKSELQAIRDEKNQPDPRLQELQEEAARLKSHFQAQLQQEMRKTALAEDQLRQQSQVEEQRVAALENQISEVSELLGTYEKAKQKDQLAIQKLKERILQLDLENKTLALAASSRSPLDSHGEESSLDVNVLKDKMEKLKRLLQVAARKSQVTLDVEKLCDLEIMPSSEAADGEKATALYYQQELKQLKEEFERYKMRAQVVLKSKNTKDGNLGKELEAAQEQLAELKEKYISLRLSCEELEHQHQQEADDWKQELARLQQLHRQELERCQLDFRDRTLKLEEELHKQRDRALAVLTEKDLELEQLRSVALASGLPGRRSPVGGGGPGDPADTSSSDSLTQALQLAAANEPTFFLYAEQLARKEVEITSLRKQKHRLEVEVHQLQDRLLEEGERHREEVAALQSHIEKNIRDQSREGANLEYLKNIIYRFLTLPDSLGRQQTLTAILTILHFSPEEKQVIMRLPTSASWWPSGKR
B5: KRT8: human host interactor protein, Gene ID 3856, expressed from transfected ORF vector (protein)
chain: MSIRVTQKSYKVSTSGPRAFSSRSYTSGPGSRISSSSFSRVGSSNFRGGLGGGYGGASGMGGITAVTVNQSLLSPLVLEVDPNIQAVRTQEKEQIKTLNNKFASFIDKVRFLEQQNKMLETKWSLLQQQKTARSNMDNMFESYINNLRRQLETLGQEKLKLEAELGNMQGLVEDFKNKYEDEINKRTEMENEFVLIKKDVDEAYMNKVELESRLEGLTDEINFLRQLYEEEIRELQSQISDTSVVLSMDNSRSLDMDSIIAEVKAQYEDIANRSRAEAESMYQIKYEELQSLAGKHGDDLRRTKTEISEMNRNISRLQAEIEGLKGQRASLEAAIADAEQRGELAIKDANAKLSELEAALQRAKQDMARQLREYQELMNVKLALDIEIATYRKLLEGEESRLESGMQNMSIHTKTTSGYAGGLSSAYGGLTSPGLSYSLGSSFGSGAGSSSFSRTSSSRAVVVKKIETRDGKLVSESSDVLPK
B6: LNX2: human host interactor protein, Gene ID 222484, expressed from transfected ORF vector (protein)
chain: MGTTSDEMVSVEQTSSSSLNPLCFECGQQHWTRENHLYNYQNEVDDDLVCHICLQPLLQPLDTPCGHTFCYKCLRNFLQEKDFCPLDRKRLHFKLCKKSSILVHKLLDKLLVLCPFSSVCKDVMQRCDLEAHLKNRCPGASHRRVALERRKTSRTQAEIENENGPTLLDPAGTLSPEADCLGTGAVPVERHLTSASLSTWSEEPGLDNPAFEESAGADTTQQPLSLPEGEITTIEIHRSNPYIQLGISIVGGNETPLINIVIQEVYRDGVIARDGRLLAGDQILQVNNYNISNVSHNYARAVLSQPCNTLHLTVLRERRFGNRAHNHSDSNSPREEIFQVALHKRDSGEQLGIKLVRRTDEPGVFILDLLEGGLAAQDGRLSSNDRVLAINGHDLKYGTPELAAQIIQASGERVNLTIARPGKPQPGNTIREAGNHSSSSQHHTPPPYYSRPSSHKDLTQCVTCQEKHITVKKEPHESLGMTVAGGRGSKSGELPIFVTSVPPHGCLARDGRIKRGDVLLNINGIDLTNLSHSEAVAMLKASAASPAVALKALEVQIVEEATQNAEEQPSTFSENEYDASWSPSWVMWLGLPSTLHSCHDIVLRRSYLGSWGFSIVGGYEENHTNQPFFIKTIVLGTPAYYDGRLKCGDMIVAVNGLSTVGMSHSALVPMLKEQRNKVTLTVICWPGSLV
B7: C16orf33: human host interactor protein, Gene ID 79622, expressed from transfected ORF vector (protein)
chain: MDVFQEGLAMVVQDPLLCDLPIQVTLEEVNSQIALEYGQAMTVRVCKMDGEVMPVVVVQSATVLDLKKAIQRYVQLKQEREGGIQHISWSYVWRTYHLTSAGEKLTEDRKKLRDYGIRNRDEVSFIKKLRQK

tested on: HIV-1 LTR promoter transactivation by HIV-1 Tat; experiment: Transactivation assay, HIV-1 LTR luciferase reporter with HIV-1 Tat; type: cell-based; conditions: HEK293 cells co-transfected with pHIV1LTR-Luc, HIV-1 Tat and the human ORF; relative luciferase activity 24 h post-transfection; positive if >=2 or <=0.5 and p<0.05
Procedure, shortened: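 HEK293 cells (10^4) were calcium-phosphate co-transfected with the HIV-1 LTR-luciferase reporter plus HIV-1 Tat, or the HTLV-1 LTR-luciferase reporter plus HTLV-1 Tax, each with a human ORF expression plasmid. A hit required relative activity ≥2 or ≤0.5 with paired t-test p<0.05.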

Row | Molecule | HIV_LTR transactiv. [fold change]
1 | B1 | 0.35
2 | B2 | 0.24
3 | B3 | 0.27
4 | B4 | 3.78
5 | B5 | 0.19
6 | B6 | 0.26
7 | B7 | 2.50

tested on: HTLV-1 LTR promoter transactivation by HTLV-1 Tax; experiment: Transactivation assay, HTLV-1 LTR luciferase reporter with HTLV-1 Tax; type: cell-based; conditions: HEK293 cells co-transfected with pHTLV1LTR-Luc, HTLV-1 Tax and the human ORF; relative luciferase activity 24 h post-transfection; positive if >=2 or <=0.5 and p<0.05

Row | Molecule | HTLV_LTR transactiv. [fold change]
8 | B1 | 2.80
9 | B2 | 0.30
10 | B3 | 3.48
11 | B4 | 0.29
12 | B5 | 0.24
13 | B6 | 0.28
